Assay results: patent publication US20110165564, “SEQUENCE-SPECIFIC DETECTION OF METHYLATION IN BIOMOLECULES” (MAX-PLANCK-GESELLSCHAFT ZUR FÖRDERUNG DER …, published 2011)

Target: T1, M.HhaI (DNA cytosine-5 methyltransferase) (Haemophilus haemolyticus, UniProt P05102 P05102:1-327)
T1 sequence: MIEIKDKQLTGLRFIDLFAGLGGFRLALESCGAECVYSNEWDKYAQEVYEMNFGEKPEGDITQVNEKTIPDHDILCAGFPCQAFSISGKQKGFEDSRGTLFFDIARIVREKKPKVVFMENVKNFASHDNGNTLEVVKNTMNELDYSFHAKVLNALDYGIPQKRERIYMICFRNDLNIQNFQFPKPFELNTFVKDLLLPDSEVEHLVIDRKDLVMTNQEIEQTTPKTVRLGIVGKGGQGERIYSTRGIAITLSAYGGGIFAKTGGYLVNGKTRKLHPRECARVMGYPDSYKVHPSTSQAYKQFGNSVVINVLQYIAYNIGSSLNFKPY
Assay: anion exchange HPLC; coupling of aziridine cofactors 1, 2, 3 almost complete; non-covalent M.HhaI-product DNA complex; 10 mM Tris pH 7.4, 50 mM NaCl, 37 C
Method: Solutions (400 μL) of aziridine cofactor 1, 2 or 3 (32 nmol, 80 μM), duplex oligodeoxynucleotide I-II (4 nmol, 10 μM) and M.HhaI (4.4 nmol, 11 μM) in buffer (10 mM Tris hydrochloride, pH 7.4, 50 mM sodium chloride, 0.05 mM ethylenediaminetetraacetic acid and 2 mM β-mercaptoethanol) were incubated at 37° C. The progress of the coupling reactions was monitored by anion exchange HPLC (Poros 10 HQ, 10 μm, 4.6×10 mm, Applied Biosystems). Compounds were eluted with aqueous potassium chloride (0.2 M for 5 min, followed by linear gradients to […], to 0.6 M in 20 min and to 1 M in 5 min) in Tris hydrochloride buffer (10 mM, pH 7.6) at a flow of 4 mL/min. […] These new compounds are assigned to non-covalent protein-DNA complexes between M.HhaI and the coupling products I¹-II, I²-II and I³-II based on their UV absorption ratio at 260 nm and 280 nm.
The presence and functionality of biotin groups in I¹-II, I²-II and I³-II were verified by addition of streptavidin. Residual aziridine cofactors 1, 2 or 3 were first removed from the labelled duplexes I¹-II, I²-II or I³-II by gel filtration using NAP-5 columns (Amersham Biosciences, Freiburg, Germany) according to the instructions of the supplier. Afterwards, streptavidin (25 μg) was added to the solutions (25 μL, 0.25 nmol I¹-II, I²-II or I³-II) and incubation was performed at 37° C. for 30 min.

B1: duplex I-II (hemimethylated) (dsDNA)
DNA 1: TGTCAGCGCATGA
DNA 2: TCATGCGCTGACA
modifications: 5mC at M in lower strand 5'-…-3'
B1: binds.
